Measurements: publication PMC3299909 (Molecular Cell, 2012)

Target: Sec5 (bone marrow-derived macrophages) (mouse (endogenous in bone …, UniProt Q9D4H1 1-924))
Experiment: co-IP

Sec5 (bone marrow-derived macrophages) (mouse, sequence (Q9D4H1 whole entry): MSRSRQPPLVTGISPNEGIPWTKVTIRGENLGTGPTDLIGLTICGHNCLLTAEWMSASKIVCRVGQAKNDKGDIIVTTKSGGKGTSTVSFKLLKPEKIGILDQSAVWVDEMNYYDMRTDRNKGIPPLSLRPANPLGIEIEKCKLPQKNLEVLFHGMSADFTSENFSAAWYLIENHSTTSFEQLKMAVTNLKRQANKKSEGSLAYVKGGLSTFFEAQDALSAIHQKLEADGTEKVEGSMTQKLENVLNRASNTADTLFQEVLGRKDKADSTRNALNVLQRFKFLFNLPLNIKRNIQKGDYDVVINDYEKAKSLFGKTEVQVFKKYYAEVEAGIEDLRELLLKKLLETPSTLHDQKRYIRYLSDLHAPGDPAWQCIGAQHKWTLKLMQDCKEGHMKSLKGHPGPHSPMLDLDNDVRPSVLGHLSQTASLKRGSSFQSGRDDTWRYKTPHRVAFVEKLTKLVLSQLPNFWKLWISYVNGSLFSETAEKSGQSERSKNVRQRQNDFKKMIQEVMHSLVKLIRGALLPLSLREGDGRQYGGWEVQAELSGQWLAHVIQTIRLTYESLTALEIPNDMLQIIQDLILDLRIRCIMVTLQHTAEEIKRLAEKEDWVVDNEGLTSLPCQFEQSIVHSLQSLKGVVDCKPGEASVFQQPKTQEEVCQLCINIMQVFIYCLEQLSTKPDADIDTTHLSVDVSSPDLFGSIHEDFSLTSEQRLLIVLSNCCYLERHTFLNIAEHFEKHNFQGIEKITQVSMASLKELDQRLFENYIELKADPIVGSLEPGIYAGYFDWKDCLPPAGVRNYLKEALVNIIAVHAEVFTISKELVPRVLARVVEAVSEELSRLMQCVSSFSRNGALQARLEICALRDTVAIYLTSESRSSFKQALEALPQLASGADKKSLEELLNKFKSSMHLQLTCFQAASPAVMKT

B1: Exo84 (bone marrow-derived macrophages) (natural protein, UniProt Q6PGF7 1-716, looked up)
chain: MSDSGASRLRRQLESGGFEARLYVKQLSQQSDGDRDLQEHRQRVQALAEETAQNLKRNVYQNYRQFIETAREISYLESEMYQLSHLLTEQKSSLESIPLALLPAAAAGASAGEDTAGAGPRERGAVQAGFLPGPAGVPREGSGTGEEGKQRTLTTLLEKVEGCRDLLETPGQYLVYNGDLVEYDADHMAQLQRVHGFLMNDCLLVATWLPQRRGMYRYNALYPLDRLAVVNVKDNPPMKDMFKLLMFPESRIFQAENAKIKREWLEVLEETKRALSDKRRREQEEAAAPRAPPPVTSKGSNPFEDEDDEELATPEAEEEKVDLSMEWIQELPEDLDVCIAQRDFEGAVDLLDKLNHYLEDKPSPPPVKELRAKVDERVRQLTEVLVFELSPDRSLRGGPKATRRAVSQLIRLGQCTKACELFLRNRAAAVHTAIRQLRIEGATLLYIHKLCHVFFTSLLETAREFETDFAGTDSGCYSAFVVWARSAMGMFVDAFSKQVFDSKESLSTAAECVKVAKEHCQQLGEIGLDLTFIIHALLVKDIQGALHSYKEIIIEATKHRNSEEMWRRMNLMTPEALGKLKEEMKSCGVSNFEQYTGDDCWVNLSYTVVAFTKQTMGFLEEALKLYFPELHMVLLESLVEIILVAVQHVDYSLRCEQDPEKKAFIRQNASFLYETVLPVVERRFEEGVGKPAKQLQDLRNASRLLRVNPESTTSVV
fold increase of the association in Tipe2-/- cells over wild type cells: ~3 fold
